Results published in patent US20030219445A1.
“And” between values parts separate entries of the source, which are not always exact repeats. Equal values may be shown once.

Columns and labels:
[1] = molecular target: biotinylated 9C5 antibody (anti-human CD34 monoclonal antibody, biotinylated with Biotin Hydrazide); test: cell-based or functional assay
[2] = molecular target: CD34 antibody 9069 (9C5) coated on M-450 Dynabeads; test: cell-based or functional assay

- % SUP-T1 Yield (tube 2, cells released with free PR34+ peptide) [1]: 43%
- % SUP-T1 Yield (tube 3, cells released with free PR34+ peptide) [1]: 31%
- % T-cells released with 9069N 2.5 mg (CD2-9069N 1 µg, b-9069 1 µg) [1]: 71%
- % T-cells released with 9069N 2.5 mg (CD2-9069N 1 µg, b-9069 10 µg) [1]: 87% and 65%
- % T-cells released with 9069N 2.5 mg (CD2-9069N 5 µg, b-9069 1 µg) [1]: 61% and 56%
- % T-cells released with 9069N 2.5 mg (CD2-9069N 5 µg, b-9069 10 µg) [1]: 50%
- % Yield of CD8+ cells (condition 3, released with free PR34+ peptide) [1]: 16%
- % Yield, released with PR34+ 2.5 mg (streptavidin coated Dynabead control) [1]: 81.5%
- % Yield, released with PR34+ 2.5 mg (beads with 1 µg antibody per 10^8 beads) [2]: 55.9%
- % Yield, released with PR34+ 2.5 mg (beads with 5 µg antibody per 10^8 beads) [2]: 68.9%
- % Yield, released with PR34+ 2.5 mg (beads with 20 µg antibody per 10^8 beads) [2]: 47.4%
- % Yield, released with PR34+ 2.5 mg (beads with 50 µg antibody per 10^8 beads) [2]: 57.5%
- release of Camma cells from anti-CD34-coated Dynabeads [2]: > 75%
- yield of Camma cells after release with PR34 peptide [2]: > 70%
Binder: QQGWFPKD (N-terminal acetyl (printed Ac-QQGWFPKD)) [free PR34+ peptide Ac-QQGWFPKD]
